This note sets out measurements from US20250283116, “USE OF ISCB IN GENOME EDITING” (Cornell University, published 2025).

The target of this data set is T1, OgeuIscB wild-type (human gut metagenome).
T1 chain: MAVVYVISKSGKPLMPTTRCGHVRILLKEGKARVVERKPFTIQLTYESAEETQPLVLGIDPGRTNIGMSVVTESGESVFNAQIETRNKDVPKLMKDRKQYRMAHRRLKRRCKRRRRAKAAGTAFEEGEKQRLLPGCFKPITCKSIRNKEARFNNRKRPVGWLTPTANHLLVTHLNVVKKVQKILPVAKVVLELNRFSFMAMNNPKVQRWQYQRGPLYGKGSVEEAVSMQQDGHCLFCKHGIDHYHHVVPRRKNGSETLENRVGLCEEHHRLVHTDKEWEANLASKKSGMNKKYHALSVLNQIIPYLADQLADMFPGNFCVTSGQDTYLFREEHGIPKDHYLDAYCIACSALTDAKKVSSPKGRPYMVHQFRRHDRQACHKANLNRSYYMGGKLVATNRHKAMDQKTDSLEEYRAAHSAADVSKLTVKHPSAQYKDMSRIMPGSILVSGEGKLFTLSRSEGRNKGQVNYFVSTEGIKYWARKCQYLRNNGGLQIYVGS
Briefly: structure; cryo-EM of IscB-ωRNA/target DNA at 2.78 A; TAM 5'-CTAGAA-3' (ideal NWRRNA). To be noted: label: 5' 6-FAM on non-target strand; partially mismatched bubble in protospacer. The method, then:
IscB was incubated for 15 minutes at 37° C. with the target DNA in cleavage buffer. DNA was supplied at a 3 fold molar excess to IscB (0.5 mg/mL final concentration). 3.5 μL of were applied to a Quantifoil holey carbon grid (1.2/1.3, 200 mesh) which had been glow-discharged with 20 mA at 0.39 mBar for 30 seconds (PELCO easiGlow). Grids were blotted with Vitrobot blotting paper (Electron Microscopy Sciences) for 6.5 s at 4° C., 100% humidity, and plunge-frozen in liquid ethane using a Mark IV FEI/Thermo Fisher Vitrobot. Data were collected on a Krios G3i Cryo Transmission Electron Microscope (Thermo Scientific) with a Ceta 16M CMOS camera 300 kV, Gatan K3 direct electron detector. The total exposure time of each movie stack led to a total accumulated dose of 50 electrons per Å2 which fractionated into 50 frames. Dose-fractionated super-resolution movie stacks collected from the Gatan K3 direct electron detector were binned to a pixel size of 1.1 Å. The defocus value was set between −1.0 μm to −2.5 μm.

B1: OgeuIscB ωRNA with 16-nt guide ; cryo-EM target DNA (ssRNA ; dsDNA)
RNA: AAAAGAGUGAACGAGAGGCUCUUCCAACUUUAUGGUUGCGACCGUAGGUUGAAAGAGCACAGGCUGAGACAUUCGUAAGGCCGAAAGACCGGACGCACCCUGGGAUUUCCCCAGUCCCCGGAACUGCAUAGCGGAUGCCAGUUGAUGGAGCAAUCUAUCAGAUAAGCCAGGGGGAACAAUCACCUCUCUGUAUCAGAGAGAGUUUUACAAAAGGAGGAACGG
DNA 1: CGCCCCACGAGGGTACGGCAAAAGAGTTTTTTTTACTAGAAGTCGAGGTCAGCCCGTGGC
DNA 2: GCCACGGGCTGACCTCGACTTCTAGTCTCGTTCACTCTTTTGCCGTACCCTCGTGGGGCG
modifications: phosphorothioate at several positions of both strands (after G25-T31 region as marked by *)
Turning to B1, the binding result is listed as “binds”.
